± gives the standard error. Variants at the floor of the assay were thinned out.
B1: glmS ribozyme (parent)
chain: AUAAAAGCGCCAGAACUACAGAAAUGUAGUUGACGAGGAGGAGGUUUAUCGAAUUUUCGGCGGAUGCCUCCAAA

Experiments:
Conditions in all cases: with glucosamine-6-phosphate
glucosamine-6-phosphate [1] = variants of: B1; assay: self-cleavage kobs at 40 uM GlcN6P; higher = faster cleavage; RNA array
Summary of the method: (§1)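 kcat and KM were obtained from weighted Michaelis–Menten fits across concentrations of kobs values. Those came from one- or two-exponential decay fits to per-tile medians normalised to baseline and to non-cleaving reference variants. The variants were barcoded ribozymes transcribed in situ by E. coli RNA polymerase on sequenced MiSeq chips and tracked through a hybridised Cy3 probe at 37 °C, with 40 μM to 10 mM glucosamine-6-phosphate in HEPES/KCl/Mg(OAc)2 buffer flowed in.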

glucosamine-6-phosphate [2] = variants of: B1; assay: self-cleavage kobs at 160 uM GlcN6P; higher = faster cleavage; RNA array
Summary of the method: as §1

glucosamine-6-phosphate [3] = variants of: B1; assay: self-cleavage kobs at 640 uM GlcN6P; higher = faster cleavage; RNA array
Summary of the method: as §1

glucosamine-6-phosphate [4] = variants of: B1; assay: self-cleavage kobs at 2500 uM GlcN6P; higher = faster cleavage; RNA array
Summary of the method: as §1

glucosamine-6-phosphate [5] = variants of: B1; assay: self-cleavage kobs at 10000 uM GlcN6P; higher = faster cleavage; RNA array
Summary of the method: as §1

| Variant | self-cleavage kobs at 40 uM GlcN6P (glucosamine-6-phosphate [1]) | self-cleavage kobs at 160 uM GlcN6P (glucosamine-6-phosphate [2]) | self-cleavage kobs at 640 uM GlcN6P (glucosamine-6-phosphate [3]) | self-cleavage kobs at 2500 uM GlcN6P (glucosamine-6-phosphate [4]) | self-cleavage kobs at 10000 uM GlcN6P (glucosamine-6-phosphate [5]) |
| --- | --- | --- | --- | --- | --- |
| U31G G35C | < 1e-05 s⁻¹ | < 1e-05 s⁻¹ | < 1e-05 s⁻¹ | < 1e-05 s⁻¹ | – |
| U46C A64G | 0.000191 ± 2.5e-05 s⁻¹ | – | – | – | 0.00537 ± 0.0008 s⁻¹ |
| A15C U46A C58U | < 1e-05 s⁻¹ | – | – | – | – |
| G63U G66C | < 1e-05 s⁻¹ | < 1e-05 s⁻¹ | – | < 1e-05 s⁻¹ | < 1e-05 s⁻¹ |
| G43C A52U | < 1e-05 s⁻¹ | < 1e-05 s⁻¹ | < 1e-05 s⁻¹ | < 1e-05 s⁻¹ | < 1e-05 s⁻¹ |
| C34G A53U G63U A64G | < 1e-05 s⁻¹ | – | – | – | < 1e-05 s⁻¹ |
| G7A C11U U30A | < 1e-05 s⁻¹ | – | – | – | – |
| A33G A36G A39C U45A | < 1e-05 s⁻¹ | < 1e-05 s⁻¹ | – | < 1e-05 s⁻¹ | < 1e-05 s⁻¹ |
| U30C G32C G44U C50U | < 1e-05 s⁻¹ | – | – | – | < 1e-05 s⁻¹ |
| A48U G51U U65G C71U | < 1e-05 s⁻¹ | – | – | < 1e-05 s⁻¹ | – |
| U49C G59U | < 1e-05 s⁻¹ | < 1e-05 s⁻¹ | < 1e-05 s⁻¹ | – | < 1e-05 s⁻¹ |
| A12C A42U A64G | < 1e-05 s⁻¹ | – | < 1e-05 s⁻¹ | – | – |
| C16U G29C | 0.000447 ± 6.3e-05 s⁻¹ | 0.000622 ± 9.5e-05 s⁻¹ | 0.00244 ± 0.00032 s⁻¹ | 0.00422 ± 0.00072 s⁻¹ | 0.0179 ± 0.0033 s⁻¹ |
| G29C C68A | < 1e-05 s⁻¹ | – | – | – | – |
| C34U G40C G51U C61A G63U | < 1e-05 s⁻¹ | – | – | – | – |
| A14C U31C A39U | 2.48e-05 ± 1.1e-05 s⁻¹ | – | – | – | 0.00132 ± 0.00031 s⁻¹ |
| G38C A39U G60U | < 1e-05 s⁻¹ | – | – | < 1e-05 s⁻¹ | < 1e-05 s⁻¹ |
| A6G A15U C16U A39G C70U | < 1e-05 s⁻¹ | – | < 1e-05 s⁻¹ | – | – |
| A14C A36C G63A U65C | < 1e-05 s⁻¹ | < 1e-05 s⁻¹ | – | – | < 1e-05 s⁻¹ |
| C61G A64G | < 1e-05 s⁻¹ | – | < 1e-05 s⁻¹ | < 1e-05 s⁻¹ | < 1e-05 s⁻¹ |
| G7U G9C | < 1e-05 s⁻¹ | < 1e-05 s⁻¹ | < 1e-05 s⁻¹ | < 1e-05 s⁻¹ | < 1e-05 s⁻¹ |
| G41U C68A | < 1e-05 s⁻¹ | < 1e-05 s⁻¹ | < 1e-05 s⁻¹ | < 1e-05 s⁻¹ | < 1e-05 s⁻¹ |
| A14U G51A | < 1e-05 s⁻¹ | – | – | – | < 1e-05 s⁻¹ |

From the supplement of paper PMC7125110
